For orientation: stoichiometry N means the number of molecules, sites or subunits per partner or assembly.

This note sets out measurements from paper PMC12205087.

Assay [1] deals with DREN-APAZ protein of the NbaSPARDA system, strep-tagged (Novosphingopyxis baekryungensis). The assay can be described thus: cryo-EM structure; active complex: NbaSPARDA with gRNA and 21-nt tDNA (1:1.2:1.2), 0.2 mg/mL; filament, 3.18 Å.
For assay [2] the target is unchanged. The assay is described as follows: cryo-EM structure; substrate-bound complex: NbaSPARDA with gRNA, 21-nt tDNA and substrate ssDNA, 0.16 mg/mL; filament, 3.19 Å.
The target in assay [3] is NbaSPARDA complex (heterodimer of NbaAgo and DREN-APAZ), wild type (Novosphingopyxis baekryungensis). The assay is described as follows: cryo-EM structure; active complex: NbaSPARDA with gRNA and 21-nt tDNA (1:1.2:1.2), 0.2 mg/mL; filament, 3.18 Å.
Assay [4] has the same target. The assay is described as follows: cryo-EM structure; guide-bound complex: NbaSPARDA with 20-nt 5'-phosphorylated gRNA (1:1.2, 25 °C, 15 min), 0.4 mg/mL, buffer F (20 mM Tris-HCl pH 8.0, 200 mM NaCl, 2 mM DTT, 2 mM MgCl2); 2.93 Å, C2 symmetry.

In the case of “DREN-APAZ protein of the NbaSPARDA system, strep-tagged (natural protein)”, the stoichiometry N in assay [1] and in assay [2] was 4 each time.
Regarding “NbaSPARDA complex (heterodimer of NbaAgo and DREN-APAZ), wild type”, the stoichiometry N in assay [3] was 32 copies; in assay [4] it was 2.
